Data on eleven molecules can be found in patent US20210147504A1 (Bayer, published 2021).

Experiment [1] has as its target T1, human NPRA (human, UniProt P16066 33-1061).
T1 sequence (looked up): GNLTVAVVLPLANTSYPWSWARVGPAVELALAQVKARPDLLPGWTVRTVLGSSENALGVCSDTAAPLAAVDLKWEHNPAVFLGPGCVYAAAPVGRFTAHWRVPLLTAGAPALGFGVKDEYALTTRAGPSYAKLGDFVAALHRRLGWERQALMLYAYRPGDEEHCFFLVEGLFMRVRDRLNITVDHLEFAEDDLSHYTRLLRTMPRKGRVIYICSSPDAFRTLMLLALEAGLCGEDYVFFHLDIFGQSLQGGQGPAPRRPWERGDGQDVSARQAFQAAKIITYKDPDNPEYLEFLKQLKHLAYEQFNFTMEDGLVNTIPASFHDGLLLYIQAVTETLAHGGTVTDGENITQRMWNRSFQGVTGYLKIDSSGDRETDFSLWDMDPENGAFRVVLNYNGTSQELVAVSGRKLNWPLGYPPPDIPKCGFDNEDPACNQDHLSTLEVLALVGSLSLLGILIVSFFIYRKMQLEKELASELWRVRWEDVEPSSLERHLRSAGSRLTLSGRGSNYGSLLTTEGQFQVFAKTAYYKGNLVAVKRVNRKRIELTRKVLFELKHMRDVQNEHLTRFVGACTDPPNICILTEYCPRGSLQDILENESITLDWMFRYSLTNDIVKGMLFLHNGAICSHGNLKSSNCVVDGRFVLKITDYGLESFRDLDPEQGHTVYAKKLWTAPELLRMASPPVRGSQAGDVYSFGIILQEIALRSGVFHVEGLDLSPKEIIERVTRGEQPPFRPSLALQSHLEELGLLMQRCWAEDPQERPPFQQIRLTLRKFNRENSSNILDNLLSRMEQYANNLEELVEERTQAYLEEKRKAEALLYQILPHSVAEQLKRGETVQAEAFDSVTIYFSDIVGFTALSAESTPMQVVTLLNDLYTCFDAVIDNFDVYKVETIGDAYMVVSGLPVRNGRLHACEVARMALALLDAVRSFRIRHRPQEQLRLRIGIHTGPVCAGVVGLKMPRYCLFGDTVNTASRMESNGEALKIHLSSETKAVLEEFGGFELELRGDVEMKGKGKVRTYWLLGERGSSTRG
Briefly: cell-based or functional assay.

The target of experiment [2] is T2, human NPRA (human, UniProt P16066 33-1061).
T2 sequence (looked up): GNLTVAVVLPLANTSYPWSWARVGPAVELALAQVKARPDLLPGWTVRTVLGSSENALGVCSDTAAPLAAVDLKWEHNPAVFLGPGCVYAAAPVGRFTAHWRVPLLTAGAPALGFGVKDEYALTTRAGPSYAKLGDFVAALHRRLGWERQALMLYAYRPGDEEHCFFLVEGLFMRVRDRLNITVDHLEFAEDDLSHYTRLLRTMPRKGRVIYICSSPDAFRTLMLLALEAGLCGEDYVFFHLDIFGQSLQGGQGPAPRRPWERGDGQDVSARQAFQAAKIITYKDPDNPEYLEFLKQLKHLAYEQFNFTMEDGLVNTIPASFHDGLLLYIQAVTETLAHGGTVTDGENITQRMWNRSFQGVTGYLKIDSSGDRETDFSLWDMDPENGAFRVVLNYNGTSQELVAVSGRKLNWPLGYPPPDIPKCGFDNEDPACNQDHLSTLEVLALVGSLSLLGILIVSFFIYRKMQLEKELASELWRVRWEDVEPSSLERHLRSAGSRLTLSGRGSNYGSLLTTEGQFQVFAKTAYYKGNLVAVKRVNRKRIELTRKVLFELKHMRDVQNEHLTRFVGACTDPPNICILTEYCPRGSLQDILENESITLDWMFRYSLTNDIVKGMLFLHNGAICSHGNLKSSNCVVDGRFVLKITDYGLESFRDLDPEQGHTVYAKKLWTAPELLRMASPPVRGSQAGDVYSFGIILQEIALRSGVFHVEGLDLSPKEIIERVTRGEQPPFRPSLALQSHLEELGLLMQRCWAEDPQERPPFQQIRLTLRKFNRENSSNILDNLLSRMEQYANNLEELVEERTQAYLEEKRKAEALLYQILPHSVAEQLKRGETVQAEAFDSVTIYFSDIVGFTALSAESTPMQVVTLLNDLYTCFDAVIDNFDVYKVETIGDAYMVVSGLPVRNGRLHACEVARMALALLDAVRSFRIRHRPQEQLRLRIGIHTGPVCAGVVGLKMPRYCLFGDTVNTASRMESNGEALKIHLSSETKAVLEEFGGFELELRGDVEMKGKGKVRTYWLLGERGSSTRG
Briefly: cell-based or functional assay. The source holds these as a separate data set.

Several values for one entry are separate records, joined by “and”; a condition that tells them apart may be missing. Equal entries are not always repeated.

B1: TPP-10294 (antibody, human IgG1, lambda)
heavy: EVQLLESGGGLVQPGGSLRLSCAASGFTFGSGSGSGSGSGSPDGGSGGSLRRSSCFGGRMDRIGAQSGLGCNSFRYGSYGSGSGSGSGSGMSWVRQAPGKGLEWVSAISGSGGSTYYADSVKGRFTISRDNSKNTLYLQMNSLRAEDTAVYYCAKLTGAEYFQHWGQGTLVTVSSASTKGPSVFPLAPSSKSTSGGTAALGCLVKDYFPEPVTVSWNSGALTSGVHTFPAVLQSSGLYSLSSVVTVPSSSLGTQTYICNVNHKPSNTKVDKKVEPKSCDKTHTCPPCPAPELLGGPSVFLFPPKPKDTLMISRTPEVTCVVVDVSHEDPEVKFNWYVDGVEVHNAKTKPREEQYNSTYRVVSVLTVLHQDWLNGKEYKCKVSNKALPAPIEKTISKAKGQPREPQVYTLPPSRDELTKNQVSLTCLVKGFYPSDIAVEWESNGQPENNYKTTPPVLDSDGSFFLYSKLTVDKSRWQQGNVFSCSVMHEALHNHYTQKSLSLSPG
light: QSVLTQPPSVSGAPGQRVTISCTGSSSNIGAGYDVHWYQQLPGTAPKLLIYGNSNRPSGVPDRFSGSKSGTSASLAITGLQAEDEADYYCQSYDSSLSGVVFGGGTKLTVLGQPKAAPSVTLFPPSSEELQANKATLVCLISDFYPGAVTVAWKADSSPVKAGVETTTPSKQSNNKYAASSYLSLTPEQWKSHRSYSCQVTHEGSTVEKTVAPTECS
As for B1, in experiment [1], the activity rcs came out at 41%; the “average rel logEC50” value is -0.3 log vs TPP-5661; the “rel. logEC50* pcs” value was -0.5 log vs TPP-5661 and -0.6 log vs TPP-5661 and -0.4 log vs TPP-5661; the “rel. logEC50 pcs 4” value is -0.2 log vs TPP-5661. In experiment [1], the “rel. logEC50 pcs 7” value turned out to be 0 log vs TPP-5661.

B2: TPP-10765 (antibody, human IgG1, lambda)
heavy: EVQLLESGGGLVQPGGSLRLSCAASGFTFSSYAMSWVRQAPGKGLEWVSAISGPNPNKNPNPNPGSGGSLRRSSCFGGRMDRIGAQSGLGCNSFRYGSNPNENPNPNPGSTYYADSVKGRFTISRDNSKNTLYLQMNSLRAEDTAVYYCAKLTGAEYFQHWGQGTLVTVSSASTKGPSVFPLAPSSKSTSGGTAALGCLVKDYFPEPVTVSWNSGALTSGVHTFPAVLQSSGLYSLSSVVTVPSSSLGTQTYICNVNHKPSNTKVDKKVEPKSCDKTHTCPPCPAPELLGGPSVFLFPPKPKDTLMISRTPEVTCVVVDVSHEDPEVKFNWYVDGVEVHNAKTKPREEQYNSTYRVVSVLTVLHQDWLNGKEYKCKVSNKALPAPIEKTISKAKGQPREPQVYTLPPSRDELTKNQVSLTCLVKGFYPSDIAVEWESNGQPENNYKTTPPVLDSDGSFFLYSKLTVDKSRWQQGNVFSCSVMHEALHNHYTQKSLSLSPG
light: QSVLTQPPSVSGAPGQRVTISCTGSSSNIGAGYDVHWYQQLPGTAPKLLIYGNSNRPSGVPDRFSGSKSGTSASLAITGLQAEDEADYYCQSYDSSLSGVVFGGGTKLTVLGQPKAAPSVTLFPPSSEELQANKATLVCLISDFYPGAVTVAWKADSSPVKAGVETTTPSKQSNNKYAASSYLSLTPEQWKSHRSYSCQVTHEGSTVEKTVAPTECS
For B2, in experiment [1], the activity rcs was 72%, the “average rel logEC50” value was -0.4 log vs TPP-5661, the rel. activity rcs is -0.9 log vs TPP-5661 and the “rel. logEC50 pcs 5” value is -0.9 log vs TPP-5661. Also, in experiment [1], the “rel. logEC50 pcs 6” value is -0.4 log vs TPP-5661 and the “rel. logEC50 pcs 7” value amounted to 0.2 log vs TPP-5661.

B3: TPP-13054 (antibody, human IgG1, lambda)
heavy: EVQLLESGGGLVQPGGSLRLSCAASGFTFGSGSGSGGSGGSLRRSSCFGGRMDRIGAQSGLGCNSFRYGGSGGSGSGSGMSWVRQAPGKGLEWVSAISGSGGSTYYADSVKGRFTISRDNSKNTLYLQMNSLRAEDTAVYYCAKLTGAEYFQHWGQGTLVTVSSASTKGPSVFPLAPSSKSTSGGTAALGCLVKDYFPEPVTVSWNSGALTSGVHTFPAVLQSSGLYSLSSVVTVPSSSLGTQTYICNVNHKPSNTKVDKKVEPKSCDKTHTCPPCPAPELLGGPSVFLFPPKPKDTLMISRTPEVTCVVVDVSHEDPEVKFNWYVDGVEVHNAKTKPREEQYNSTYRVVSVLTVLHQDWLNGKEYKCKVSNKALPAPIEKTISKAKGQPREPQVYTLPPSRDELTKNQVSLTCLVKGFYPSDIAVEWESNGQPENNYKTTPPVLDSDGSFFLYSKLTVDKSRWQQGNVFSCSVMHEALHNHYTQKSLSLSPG
light: QSVLTQPPSVSGAPGQRVTISCTGSSSNIGAGYDVHWYQQLPGTAPKLLIYGNSNRPSGVPDRFSGSKSGTSASLAITGLQAEDEADYYCQSYDSSLSGVVFGGGTKLTVLGQPKAAPSVTLFPPSSEELQANKATLVCLISDFYPGAVTVAWKADSSPVKAGVETTTPSKQSNNKYAASSYLSLTPEQWKSHRSYSCQVTHEGSTVEKTVAPTECS
B3: in experiment [1], the “average rel logEC50” value is -0.8 log vs TPP-5661; the “rel. logEC50* pcs” value is -0.7 log vs TPP-5661 and -0.8 log vs TPP-5661.

B4: TPP-10274 (antibody)
heavy: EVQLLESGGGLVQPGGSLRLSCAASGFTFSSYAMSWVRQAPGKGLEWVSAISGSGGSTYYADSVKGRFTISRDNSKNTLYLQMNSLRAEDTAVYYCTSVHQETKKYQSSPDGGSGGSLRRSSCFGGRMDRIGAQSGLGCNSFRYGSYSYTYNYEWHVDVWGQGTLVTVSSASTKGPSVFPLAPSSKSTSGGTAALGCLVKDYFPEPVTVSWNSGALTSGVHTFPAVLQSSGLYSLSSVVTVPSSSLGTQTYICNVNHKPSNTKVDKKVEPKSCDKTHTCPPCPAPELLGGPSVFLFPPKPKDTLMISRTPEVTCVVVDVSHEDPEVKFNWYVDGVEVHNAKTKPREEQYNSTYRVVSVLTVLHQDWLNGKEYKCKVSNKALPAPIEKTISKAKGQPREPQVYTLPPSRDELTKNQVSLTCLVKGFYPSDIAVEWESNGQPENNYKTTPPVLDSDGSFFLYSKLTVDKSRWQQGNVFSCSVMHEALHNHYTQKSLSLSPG
light: QSVLTQPPSVSGAPGQRVTISCTGSSSNIGAGYDVHWYQQLPGTAPKLLIYGNSNRPSGVPDRFSGSKSGTSASLAITGLQAEDEADYYCQSYDSSLSGVVFGGGTKLTVLGQPKAAPSVTLFPPSSEELQANKATLVCLISDFYPGAVTVAWKADSSPVKAGVETTTPSKQSNNKYAASSYLSLTPEQWKSHRSYSCQVTHEGSTVEKTVAPTECS
B4: in experiment [1], the activity rcs came to 71%, the “average rel logEC50” value is -0.1 log vs TPP-5661, the “rel. logEC50 pcs 2” value is -0.3 log vs TPP-5661 and the “rel. logEC50 pcs 3” value is -0.2 log vs TPP-5661. Moreover, the “rel. logEC50 pcs 7” value in experiment [1] came to 0 log vs TPP-5661.

B5: TPP-10845 (antibody, human IgG1, lambda)
heavy: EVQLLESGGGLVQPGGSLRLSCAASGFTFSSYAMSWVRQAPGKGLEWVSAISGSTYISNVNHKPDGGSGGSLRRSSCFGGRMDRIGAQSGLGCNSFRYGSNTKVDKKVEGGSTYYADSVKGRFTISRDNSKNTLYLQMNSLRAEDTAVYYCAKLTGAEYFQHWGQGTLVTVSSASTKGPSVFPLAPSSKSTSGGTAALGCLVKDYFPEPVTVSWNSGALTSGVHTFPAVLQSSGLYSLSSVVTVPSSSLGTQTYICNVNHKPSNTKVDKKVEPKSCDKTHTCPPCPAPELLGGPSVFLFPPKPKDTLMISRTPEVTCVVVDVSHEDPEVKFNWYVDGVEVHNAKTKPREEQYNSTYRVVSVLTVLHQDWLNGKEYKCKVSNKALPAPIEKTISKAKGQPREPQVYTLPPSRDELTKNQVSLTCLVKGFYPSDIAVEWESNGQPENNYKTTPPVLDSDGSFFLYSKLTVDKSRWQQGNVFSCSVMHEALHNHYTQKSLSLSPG
light: QSVLTQPPSVSGAPGQRVTISCTGSSSNIGAGYDVHWYQQLPGTAPKLLIYGNSNRPSGVPDRFSGSKSGTSASLAITGLQAEDEADYYCQSYDSSLSGVVFGGGTKLTVLGQPKAAPSVTLFPPSSEELQANKATLVCLISDFYPGAVTVAWKADSSPVKAGVETTTPSKQSNNKYAASSYLSLTPEQWKSHRSYSCQVTHEGSTVEKTVAPTECS
On to B5, for which, in experiment [1], the activity rcs worked out at 67%, the “average rel logEC50” value was -0.6 log vs TPP-5661, the “rel. logEC50 pcs 5” value was -0.4 log vs TPP-5661 and the “rel. logEC50 pcs 6” value is -0.8 log vs TPP-5661.

B6: TPP-13230 (antibody)
heavy: not shown
light: QSVLTQPPSVSGAPGQRVTISCTGSSSNIGAGYDVHWYQQLPGTAPKLLIYGNSNRPSGVPDRFSGSKSGTSASLAITGLQAEDEADYYCQSYDSSLSGVVFGGGTKLTVLGQPKAAPSVTLFPPSSEELQANKATLVCLISDFYPGAVTVAWKADSSPVKAGVETTTPSKQSNNKYAASSYLSLTPEQWKSHRSYSCQVTHEGSTVEKTVAPTECS
Regarding B6, in experiment [2], the “average rel logEC50” value was -0.3 log vs TPP-5661 and the “rel. logEC50 pcs 9” value is -0.3 log vs TPP-5661.

B7: TPP-5661 (antibody)
heavy: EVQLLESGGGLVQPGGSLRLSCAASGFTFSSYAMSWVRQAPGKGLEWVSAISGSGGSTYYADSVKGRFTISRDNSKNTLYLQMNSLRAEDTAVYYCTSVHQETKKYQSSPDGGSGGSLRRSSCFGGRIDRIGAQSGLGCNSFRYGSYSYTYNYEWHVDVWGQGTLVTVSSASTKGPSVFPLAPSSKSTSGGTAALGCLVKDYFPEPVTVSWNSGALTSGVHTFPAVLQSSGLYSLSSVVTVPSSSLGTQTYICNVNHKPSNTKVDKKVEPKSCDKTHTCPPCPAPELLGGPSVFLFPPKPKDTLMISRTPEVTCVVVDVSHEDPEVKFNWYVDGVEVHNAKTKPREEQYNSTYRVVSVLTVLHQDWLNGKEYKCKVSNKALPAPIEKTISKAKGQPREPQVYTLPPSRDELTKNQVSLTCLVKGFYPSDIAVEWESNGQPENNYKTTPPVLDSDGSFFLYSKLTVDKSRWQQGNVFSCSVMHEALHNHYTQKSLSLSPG
light: QSVLTQPPSVSGAPGQRVTISCTGSSSNIGAGYDVHWYQQLPGTAPKLLIYGNSNRPSGVPDRFSGSKSGTSASLAITGLQAEDEADYYCQSYDSSLSGVVFGGGTKLTVLGQPKAAPSVTLFPPSSEELQANKATLVCLISDFYPGAVTVAWKADSSPVKAGVETTTPSKQSNNKYAASSYLSLTPEQWKSHRSYSCQVTHEGSTVEKTVAPTECS
For B7, in experiment [2], the activity rcs stood at 36%, the “average rel logEC50” value was 0 log vs TPP-5661, the rel. activity rcs is 0 log vs TPP-5661 and the “rel. logEC50* pcs” value was 0 log vs TPP-5661. For the same molecule, in experiment [2], the “rel. logEC50 ics” value was determined as 0 log vs TPP-5661, the “rel. logEC50 pcs 1” value was 0 log vs TPP-5661, the “rel. logEC50 pcs 2” value was found to be 0 log vs TPP-5661 and the “rel. logEC50 pcs 3” value came to 0 log vs TPP-5661. For the same molecule, in experiment [2], the “rel. logEC50 pcs 4” value was determined as 0 log vs TPP-5661, the “rel. logEC50 pcs 5” value amounted to 0 log vs TPP-5661, the “rel. logEC50 pcs 6” value was 0 log vs TPP-5661 and the “rel. logEC50 pcs 7” value was determined as 0 log vs TPP-5661. In experiment [2], the “rel. logEC50 pcs 8” value amounted to 0 log vs TPP-5661 and the “rel. logEC50 pcs 9” value worked out at 0 log vs TPP-5661.

B8: TPP-10847 (antibody, human IgG1, lambda)
heavy: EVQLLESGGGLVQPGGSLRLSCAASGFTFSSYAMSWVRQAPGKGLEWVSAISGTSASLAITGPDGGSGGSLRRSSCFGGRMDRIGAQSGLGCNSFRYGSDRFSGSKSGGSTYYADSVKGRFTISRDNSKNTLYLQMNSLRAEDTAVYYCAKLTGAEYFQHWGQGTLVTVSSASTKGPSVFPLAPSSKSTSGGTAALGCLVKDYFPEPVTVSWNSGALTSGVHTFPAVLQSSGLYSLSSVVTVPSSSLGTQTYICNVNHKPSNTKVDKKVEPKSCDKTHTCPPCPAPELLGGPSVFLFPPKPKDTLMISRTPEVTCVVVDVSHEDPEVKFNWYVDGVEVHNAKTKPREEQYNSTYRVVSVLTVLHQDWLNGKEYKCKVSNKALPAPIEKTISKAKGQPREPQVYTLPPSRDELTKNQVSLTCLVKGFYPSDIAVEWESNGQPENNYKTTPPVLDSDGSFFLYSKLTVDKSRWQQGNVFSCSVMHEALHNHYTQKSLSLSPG
light: QSVLTQPPSVSGAPGQRVTISCTGSSSNIGAGYDVHWYQQLPGTAPKLLIYGNSNRPSGVPDRFSGSKSGTSASLAITGLQAEDEADYYCQSYDSSLSGVVFGGGTKLTVLGQPKAAPSVTLFPPSSEELQANKATLVCLISDFYPGAVTVAWKADSSPVKAGVETTTPSKQSNNKYAASSYLSLTPEQWKSHRSYSCQVTHEGSTVEKTVAPTECS
Consider B8, for which, in experiment [1], the “average rel logEC50” value was -0.5 log vs TPP-5661, the “rel. logEC50 pcs 5” value worked out at 0 log vs TPP-5661 and the “rel. logEC50 pcs 6” value is -0.9 log vs TPP-5661.

B9: TPP-13061 (antibody, human IgG1, lambda)
heavy: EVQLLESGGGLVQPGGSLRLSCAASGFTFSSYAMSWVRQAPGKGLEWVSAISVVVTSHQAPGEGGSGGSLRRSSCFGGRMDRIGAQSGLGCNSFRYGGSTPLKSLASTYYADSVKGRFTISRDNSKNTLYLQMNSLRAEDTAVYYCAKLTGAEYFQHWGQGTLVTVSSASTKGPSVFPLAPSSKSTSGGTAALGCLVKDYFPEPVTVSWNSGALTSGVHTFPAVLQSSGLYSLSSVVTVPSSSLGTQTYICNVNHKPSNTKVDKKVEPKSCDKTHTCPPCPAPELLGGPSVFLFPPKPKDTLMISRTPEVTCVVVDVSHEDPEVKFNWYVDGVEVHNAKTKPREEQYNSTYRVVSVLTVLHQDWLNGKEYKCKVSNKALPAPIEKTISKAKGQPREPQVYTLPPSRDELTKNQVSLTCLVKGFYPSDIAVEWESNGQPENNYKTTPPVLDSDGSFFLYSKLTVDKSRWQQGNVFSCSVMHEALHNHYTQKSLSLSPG
light: QSVLTQPPSVSGAPGQRVTISCTGSSSNIGAGYDVHWYQQLPGTAPKLLIYGNSNRPSGVPDRFSGSKSGTSASLAITGLQAEDEADYYCQSYDSSLSGVVFGGGTKLTVLGQPKAAPSVTLFPPSSEELQANKATLVCLISDFYPGAVTVAWKADSSPVKAGVETTTPSKQSNNKYAASSYLSLTPEQWKSHRSYSCQVTHEGSTVEKTVAPTECS
As to B9, in experiment [1], the “average rel logEC50” value was -0.7 log vs TPP-5661; the “rel. logEC50* pcs” value is -0.6 log vs TPP-5661 and -0.8 log vs TPP-5661.

B10: TPP-10282 (antibody, human IgG1, lambda)
heavy: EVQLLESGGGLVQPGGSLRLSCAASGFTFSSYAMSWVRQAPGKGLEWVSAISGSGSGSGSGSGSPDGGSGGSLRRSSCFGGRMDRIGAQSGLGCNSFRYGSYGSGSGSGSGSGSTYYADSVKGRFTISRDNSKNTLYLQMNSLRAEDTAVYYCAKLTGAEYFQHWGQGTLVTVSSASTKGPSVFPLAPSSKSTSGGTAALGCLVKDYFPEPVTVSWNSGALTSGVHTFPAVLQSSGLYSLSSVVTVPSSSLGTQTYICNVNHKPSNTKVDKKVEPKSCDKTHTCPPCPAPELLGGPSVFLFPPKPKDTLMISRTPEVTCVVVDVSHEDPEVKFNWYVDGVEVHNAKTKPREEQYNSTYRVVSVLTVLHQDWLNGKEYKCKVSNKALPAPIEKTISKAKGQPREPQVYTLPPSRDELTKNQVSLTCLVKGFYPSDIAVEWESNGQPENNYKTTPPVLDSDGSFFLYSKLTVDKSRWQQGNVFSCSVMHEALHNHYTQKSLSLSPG
light: QSVLTQPPSVSGAPGQRVTISCTGSSSNIGAGYDVHWYQQLPGTAPKLLIYGNSNRPSGVPDRFSGSKSGTSASLAITGLQAEDEADYYCQSYDSSLSGVVFGGGTKLTVLGQPKAAPSVTLFPPSSEELQANKATLVCLISDFYPGAVTVAWKADSSPVKAGVETTTPSKQSNNKYAASSYLSLTPEQWKSHRSYSCQVTHEGSTVEKTVAPTECS
Turning to B10, in experiment [1], the activity rcs came to 30%, the “average rel logEC50” value came to 0.1 log vs TPP-5661, the rel. activity rcs is 0.3 log vs TPP-5661 and the “rel. logEC50 pcs 1” value came to 0.3 log vs TPP-5661. In experiment [1], the “rel. logEC50 pcs 2” value was -0.2 log vs TPP-5661, the “rel. logEC50 pcs 4” value amounted to 0.1 log vs TPP-5661 and the “rel. logEC50 pcs 5” value stood at 0.2 log vs TPP-5661.

B11: TPP-10283 (antibody, human IgG1, lambda)
heavy: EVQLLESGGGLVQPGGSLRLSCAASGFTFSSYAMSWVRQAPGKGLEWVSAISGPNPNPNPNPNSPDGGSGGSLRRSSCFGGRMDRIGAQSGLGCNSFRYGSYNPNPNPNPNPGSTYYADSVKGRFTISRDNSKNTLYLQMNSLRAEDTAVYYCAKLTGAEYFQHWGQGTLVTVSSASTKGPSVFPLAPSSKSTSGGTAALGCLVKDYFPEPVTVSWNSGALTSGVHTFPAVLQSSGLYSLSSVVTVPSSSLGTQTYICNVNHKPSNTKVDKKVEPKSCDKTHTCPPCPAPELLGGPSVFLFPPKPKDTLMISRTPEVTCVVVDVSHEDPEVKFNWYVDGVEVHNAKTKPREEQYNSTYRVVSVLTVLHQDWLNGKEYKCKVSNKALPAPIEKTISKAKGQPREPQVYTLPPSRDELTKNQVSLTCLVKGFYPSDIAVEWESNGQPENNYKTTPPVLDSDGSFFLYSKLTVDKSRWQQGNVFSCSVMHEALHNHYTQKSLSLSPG
light: QSVLTQPPSVSGAPGQRVTISCTGSSSNIGAGYDVHWYQQLPGTAPKLLIYGNSNRPSGVPDRFSGSKSGTSASLAITGLQAEDEADYYCQSYDSSLSGVVFGGGTKLTVLGQPKAAPSVTLFPPSSEELQANKATLVCLISDFYPGAVTVAWKADSSPVKAGVETTTPSKQSNNKYAASSYLSLTPEQWKSHRSYSCQVTHEGSTVEKTVAPTECS
As to B11, in experiment [1], the activity rcs was 83%, the “average rel logEC50” value was -0.8 log vs TPP-5661, the rel. activity rcs was -0.8 log vs TPP-5661 and the “rel. logEC50 pcs 5” value is -0.8 log vs TPP-5661.
